The text below walks through data of patent publication US5482996A, “Protein-containing polymers and a method of synthesis of protein-containing polymers in organic solvents” (University of Pittsburgh, priority 1993, dated 1996).

Substrate in series [1]: C[C@H](NC(=O)CCC(=O)O)C(=O)N[C@@H](C)C(=O)N1CCC[C@H]1C(=O)N[C@@H](Cc1ccccc1)C(=O)Nc1ccc([N+](=O)[O-])cc1
The series can be described thus: Hydrolysis of peptide p-nitroanilide substrate, kinetic constants. It is filed as biochemical. The settings on record: other: Tris-HCl buffer (0.1M, pH 8.6). On the procedure: (§1) Kinetic studies of the modified protein were performed using substrate (N-succinyl-L-alanyl-L-alanyl-L-prolyl-L-phenylalanyl p-nitroanilide) in 0.1M Tris-HCl buffer, pH 8.6. The purified HPLC fractions (three total) were tested for activity while increasing the substrate concentrations in equal increments. Substrate concentration versus rate was plotted to determine Vmax and Km using non-linear regression analysis. A standard of pure subtilisin was analyzed as a control.
As set forth above, the activity of the modified enzymes was assessed with the artificial peptide substrate succinyl-L-alanyl-L-alanyl-L-prolyl-L-phenylalanyl p-nitroanilide. A sample of 30 mg modified protein powder was dissolved in tetrahydrofuran, and filtered with a solvent resistant 0.22 μm filter in order to remove the insoluble native protein. The solvent was evaporated and, as mentioned above, values for Vmax and Km were determined.

Substrate in series [2]: C[C@H](NC(=O)CCC(=O)O)C(=O)N[C@@H](C)C(=O)N1CCC[C@H]1C(=O)N[C@@H](Cc1ccccc1)C(=O)Nc1ccc([N+](=O)[O-])cc1
Described as above. Conditions: other: Tris-HCl buffer (0.1M, pH 8.6). In kind it is biochemical. On the procedure:
as §1
Before reacting PEG-subtilisin with other materials it is necessary to fully characterize the activity and stability of the "bio-monomer". Using solubility, IMAC, and HPLC the modified protein was separated into predominantly singly or doubly modified protein fractions. […] Thus, the activities and stabilities noted are average properties for the sample being studied. For comparison to the native protein, unmodified protein was purified from the modification reaction mixture and characterized to some degree.
As set forth above, the activity of the modified enzymes was assessed with the artificial peptide substrate succinyl-L-alanyl-L-alanyl-L-prolyl-L-phenylalanyl p-nitroanilide. […] The solvent was evaporated and, as mentioned above, values for Vmax and Km were determined.
This is another data set of the same source.

B1: Subtilisin Carlsberg, native (pure subtilisin standard) (Bacillus licheniformis) (protein)
chain: AQTVPYGIPLIKADKVQAQGFKGANVKVAVLDTGIQASHPDLNVVGGASFVAGEAYNTDGNGHGTHVAGTVAALDNTTGVLGVAPSVSLYAVKVLNSSGSGSYSGIVSGIEWATTNGMDVINMSLGGASGSTAMKQAVDNAYAKGVVVVAAAGNSGSSGNTNTIGYPAKYDSVIAVGAVDSNSNRASFSSVGAELEVMAPGAGVYSTYPTNTYATLNGTSMASPHVAGAAALILSKHPNLSASQVRNRLSSTATYLGSSFYYGKGLINVEAAAQ
notes: purchased Sigma Chemical Co
Turning to B1, in series [1], the Km (commonly the substrate concentration at which the rate is half of its maximum) is 120 µM.

B2: Subtilisin Carlsberg, unmodified fraction purified from the PEG modification reaction mixture (Bacillus licheniformis) (protein)
chain: B1 chain
notes: purchased Sigma Chemical Co
Take B2: in series [2], the Km was 170 µM.
